According to patent US20260117202A1:

Legend:
Assay in all cases: sandwich ELISA, AM14 coated, supernatant 1:10
FHM-1 (RSV strain A2) = FHM-1 (RSV strain A2) (UniProt P03420)
FHM-10 (RSV strain A2) = FHM-10 (RSV strain A2) (UniProt P03420)
FHM-11 (RSV strain A2) = FHM-11 (RSV strain A2) (UniProt P03420)
FHM-15 (RSV strain A2) = FHM-15 (RSV strain A2) (UniProt P03420)
FHM-25 (RSV strain A2) = FHM-25 (RSV strain A2) (UniProt P03420)
FHM-6 (RSV strain A2) = FHM-6 (RSV strain A2) (UniProt P03420)
FHS-10 (RSV strain A2) = FHS-10 (RSV strain A2) (UniProt P03420)
FHS-14 (RSV strain A2) = FHS-14 (RSV strain A2) (UniProt P03420)
FHS-16 (RSV strain A2) = FHS-16 (RSV strain A2) (UniProt P03420)
FHS-18 (RSV strain A2) = FHS-18 (RSV strain A2) (UniProt P03420)
FHS-19 (RSV strain A2) = FHS-19 (RSV strain A2) (UniProt P03420)
FHS-20 (RSV strain A2) = FHS-20 (RSV strain A2) (UniProt P03420)
FHS-25 (RSV strain A2) = FHS-25 (RSV strain A2) (UniProt P03420)
FHS-30 (RSV strain A2) = FHS-30 (RSV strain A2) (UniProt P03420)
FHS-34 (RSV strain A2) = FHS-34 (RSV strain A2) (UniProt P03420)
FHS-35 (RSV strain A2) = FHS-35 (RSV strain A2) (UniProt P03420)
FHS-37 (RSV strain A2) = FHS-37 (RSV strain A2) (UniProt P03420)
FHS-39 (RSV strain A2) = FHS-39 (RSV strain A2) (UniProt P03420)
FHS-4 (RSV strain A2) = FHS-4 (RSV strain A2) (UniProt P03420)
FHS-40 (RSV strain A2) = FHS-40 (RSV strain A2) (UniProt P03420)
FHS-42 (RSV strain A2) = FHS-42 (RSV strain A2) (UniProt P03420)
FHS-44 (RSV strain A2) = FHS-44 (RSV strain A2) (UniProt P03420)
FHS-46 (RSV strain A2) = FHS-46 (RSV strain A2) (UniProt P03420)
FHS-5 (RSV strain A2) = FHS-5 (RSV strain A2) (UniProt P03420)
FHS-51 (RSV strain A2) = FHS-51 (RSV strain A2) (UniProt P03420)
FHS-57 (RSV strain A2) = FHS-57 (RSV strain A2) (UniProt P03420)
FHS-58 (RSV strain A2) = FHS-58 (RSV strain A2) (UniProt P03420)
FHS-59 (RSV strain A2) = FHS-59 (RSV strain A2) (UniProt P03420)
FHS-66 (RSV strain A2) = FHS-66 (RSV strain A2) (UniProt P03420)
FHS-69 (RSV strain A2) = FHS-69 (RSV strain A2) (UniProt P03420)
FHS-7 (RSV strain A2) = FHS-7 (RSV strain A2) (UniProt P03420)
FHS-71 (RSV strain A2) = FHS-71 (RSV strain A2) (UniProt P03420)
FHS-72 (RSV strain A2) = FHS-72 (RSV strain A2) (UniProt P03420)
FHS-78 (RSV strain A2) = FHS-78 (RSV strain A2) (UniProt P03420)
FHS-80 (RSV strain A2) = FHS-80 (RSV strain A2) (UniProt P03420)
FHS-82 (RSV strain A2) = FHS-82 (RSV strain A2) (UniProt P03420)
FHS-84 (RSV strain A2) = FHS-84 (RSV strain A2) (UniProt P03420)
FHS-90 (RSV strain A2) = FHS-90 (RSV strain A2) (UniProt P03420)
FHS-93 (RSV strain A2) = FHS-93 (RSV strain A2) (UniProt P03420)
FHS-97 (RSV strain A2) = FHS-97 (RSV strain A2) (UniProt P03420)
[1] = target: wild-type RSV F protein 1 before artificial mutation (RSV strain A2) (UniProt P03420)

Substance: AM14 monoclonal antibody
- OD value (FHM-1 (RSV strain A2)): 2.29 OD
- OD value (FHM-10 (RSV strain A2)): 0.01 OD
- OD value (FHM-11 (RSV strain A2)): 0.006 OD
- OD value (FHM-15 (RSV strain A2)): 1.5 OD
- OD value (FHM-25 (RSV strain A2)): 2.42 OD
- OD value (FHM-6 (RSV strain A2)): 0.005 OD
- OD value (FHS-10 (RSV strain A2)): 0.069 OD
- OD value (FHS-14 (RSV strain A2)): 2.61 OD
- OD value (FHS-16 (RSV strain A2)): 0.009 OD
- OD value (FHS-18 (RSV strain A2)): 0.009 OD
- OD value (FHS-19 (RSV strain A2)): 0.007 OD
- OD value (FHS-20 (RSV strain A2)): 0.009 OD
- OD value (FHS-25 (RSV strain A2)): 0.007 OD
- OD value (FHS-30 (RSV strain A2)): 0.009 OD
- OD value (FHS-34 (RSV strain A2)): 0.007 OD
- OD value (FHS-35 (RSV strain A2)): 0.007 OD
- OD value (FHS-37 (RSV strain A2)): 0.007 OD
- OD value (FHS-39 (RSV strain A2)): 0.007 OD
- OD value (FHS-4 (RSV strain A2)): 2.26 OD
- OD value (FHS-40 (RSV strain A2)): 0.009 OD
- OD value (FHS-42 (RSV strain A2)): 0.01 OD
- OD value (FHS-44 (RSV strain A2)): 0.039 OD
- OD value (FHS-46 (RSV strain A2)): 2.41 OD
- OD value (FHS-5 (RSV strain A2)): 2.24 OD
- OD value (FHS-51 (RSV strain A2)): 0.006 OD
- OD value (FHS-57 (RSV strain A2)): 0.007 OD
- OD value (FHS-58 (RSV strain A2)): 0.011 OD
- OD value (FHS-59 (RSV strain A2)): 0.006 OD
- OD value (FHS-66 (RSV strain A2)): 1.75 OD
- OD value (FHS-69 (RSV strain A2)): 1.88 OD
- OD value (FHS-7 (RSV strain A2)): 0.011 OD
- OD value (FHS-71 (RSV strain A2)): 0.012 OD
- OD value (FHS-72 (RSV strain A2)): 0.007 OD
- OD value (FHS-78 (RSV strain A2)): 1.24 OD
- OD value (FHS-80 (RSV strain A2)): 0.005 OD
- OD value (FHS-82 (RSV strain A2)): 0.063 OD
- OD value (FHS-84 (RSV strain A2)): 1.01 OD
- OD value (FHS-90 (RSV strain A2)): 0.007 OD
- OD value (FHS-93 (RSV strain A2)): 0.009 OD
- OD value (FHS-97 (RSV strain A2)): 0.006 OD
- OD value [1]: 0.014 OD
